The target in the test is T1, geranyl diphosphate synthase small subunit from Mentha, full-length preprotein encoded by the cDNA insert of … (Mentha piperita (peppermint oil gland …)).
T1 construct: also called Mp13.18 protein; 28 kDa protein
T1 chain: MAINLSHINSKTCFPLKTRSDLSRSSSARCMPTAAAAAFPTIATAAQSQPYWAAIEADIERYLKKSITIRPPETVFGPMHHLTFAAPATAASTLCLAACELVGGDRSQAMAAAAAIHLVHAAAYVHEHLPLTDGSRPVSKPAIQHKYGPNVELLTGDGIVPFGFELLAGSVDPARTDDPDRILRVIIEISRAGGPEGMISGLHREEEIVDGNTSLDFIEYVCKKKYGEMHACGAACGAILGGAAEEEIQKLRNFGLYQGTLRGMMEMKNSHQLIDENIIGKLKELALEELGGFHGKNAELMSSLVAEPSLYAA
Nature of the test: co-expression in E. coli, anion-exchange chromatography, activity assay. Here is the method: The transformed bacteria were then induced with 1 mM IPTG and allowed to express for 24 h at 15° C. The bacteria were harvested by centrifugation, washed once with Tris buffer (pH 7.0) containing 50 mM KCl, and resuspended in 25 ml sonication buffer (25 mM Hepes, pH 7.2, 10 mM MgCl₂, 10% glycerol, 1 mM DTT, 1 mM EDTA and 1 mM benzamidine) and disrupted by brief sonication (VirSonic, 25% power, two 30 s bursts, 0-4° C.). The sonicate was centrifuged at 12,000 g (30 min), then at 195,000 g (90 min). The supernatant (soluble enzyme fraction) was loaded onto an HR 5/5 column containing Source 15Q anion-exchange separation medium (Pharmacia Biotech) that had been equilibrated with Hepes buffer (25 mM, pH 7.5) containing 10% glycerol, 10 mM MgCl₂, 1 mM DTT and 1 mM benzamidine. A step gradient of KCl (0-85 mM (10 ml); 85 mM (15 ml); 85-600 mM (20 ml)) was applied, and 2 ml fractions were collected and assayed for prenyltransferase activity using [¹⁴C]IPP and DMAPP (or GPP or FPP) as cosubstrates as described above. […]

B1: geranyl diphosphate synthase large subunit from peppermint (Mentha piperita), full-length preprotein encoded by the cDNA insert of pMp23.10, expressed from … (enzyme)
chain: MSALVNPVAKWPQTIGVKDVHGGRRRRSRSTLFQSHPLRTEMPFSLYFSSPLKAPATFSVSAVYTKEGSEIRDKDPAPSTSPAFDFDGYMLRKAKSVNKALEAAVQMKEPLKIHESMRYSLLAGGKRVRPMLCIAACELVGGDESTAMPAACAVEMIHTMSLMHDDLPCMDNDDLRRGKPTNHMAFGESVAVLAGDALLSFAFEHVAAATKGAPPERIVRVLGELAVSIGSEGLVAGQVVDVCSEGMAEVGLDHLEFIHHHKTAALLQGSVVLGAILGGGKEEEVAKLRKFANCIGLLFQVVDDILDVTKSSKELGKTAGKDLVADKTTYPKLIGVEKSKEFADRLNREAQEQLLHFHPHRAAPLIALANYIAYRDN
notes: also called Mp23.10 protein; pMp23.10 protein
On to B1, for which the binding result is given as “binds”.

The values are drawn from patent US20020106772A1 (WASHINGTON STATE UNIVERSITY RESEARCH FOUNDATION, published 2002).
